T1: MBP-IpMYB1 (Ipomoea purpurea, UniProt Q1JV13 1-272)
T1 sequence: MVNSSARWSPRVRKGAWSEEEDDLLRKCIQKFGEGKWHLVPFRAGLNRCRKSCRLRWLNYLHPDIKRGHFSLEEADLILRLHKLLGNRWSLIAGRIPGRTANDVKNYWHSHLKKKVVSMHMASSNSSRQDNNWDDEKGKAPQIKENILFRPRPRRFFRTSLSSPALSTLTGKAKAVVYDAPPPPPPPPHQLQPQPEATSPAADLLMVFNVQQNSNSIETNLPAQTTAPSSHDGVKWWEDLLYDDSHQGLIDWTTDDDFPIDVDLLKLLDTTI

B1: MYB1pro probe 3 (dsDNA)
DNA 1: TCTAGCTAGCTAGCTACCAACTGCAC
DNA 2: GTGCAGTTGGTAGCTAGCTAGCTAGA
B2: p1x3 (dsDNA)
DNA 1: ATTCCTAGCTACCATACCTAGCTACCATACCTAGCTACCATATTA
DNA 2: TAATATGGTAGCTAGGTATGGTAGCTAGGTATGGTAGCTAGGAAT

Experiments:
MBP-IpMYB1 [1] = biological target: T1, MBP-IpMYB1; assay: EMSA; favored over probe 1; EMSA: 1x = 10 mM Tris-HCl pH 7.5, 50 mM NaCl, 8 mM MgCl2, 1 mM EDTA, 1 mM DTT, 5% glycerol; 20 pmol probe, 2 ug MBP-protein in 10 ul, 25 C, 10 min; 12% native PAGE, 0.25x TBE; details: protein: recombinant; tags: MBP (pMAL-c2G)
MBP-IpMYB1 [2] = biological target: T1, MBP-IpMYB1; assay: EMSA; EMSA: 1x = 10 mM Tris-HCl pH 7.5, 50 mM NaCl, 8 mM MgCl2, 1 mM EDTA, 1 mM DTT, 5% glycerol; 20 pmol probe, 2 ug MBP-protein in 10 ul, 25 C, 10 min; 12% native PAGE, 0.25x TBE; details: protein: recombinant; tags: MBP (pMAL-c2G)

| Binder | binding result (MBP-IpMYB1 [1]) | binding result (MBP-IpMYB1 [2]) |
| --- | --- | --- |
| B1 | binds | – |
| B2 | – | binds |

— PMC3847620, “A valid strategy for precise identifications of transcription factor binding sites in combinatorial regulation using bioinformatic and experimental approaches”
